Results taken from US20100081624.

Legend:
[1] = tested on: T1, LxVPc1 peptide (synthetic peptide with the LxVP sequence of NFATc1)
T1 sequence: DQYLAVPQHPYQWAK

[2] = tested on: mutLxVPc1 peptide (LxVP motif from NFATc1 with the Leucine, Valine and Proline residues replaced by Alanine)

Which “phosphatase activity of CN on the RII phosphopeptide substrate” value [1] does the source give for “Calcineurin of the Biomol Green Calcineurin assay kit” here?
The value was “severely blocked in vitro the phosphatase activity of CN on its physiological substrate”.

What about the “phosphatase activity of CN on the RII phosphopeptide substrate” value [2] of the same substance?
Its value is “(but not its mutant version)”.
